Values quoted from earlier work in PMC3515962.

Target: IL-2 receptor (Mus musculus) (UniProt P01590)
Test: radioligand binding

Chain of UniProt P01590 (P01590 22-236, chain 1 of 3): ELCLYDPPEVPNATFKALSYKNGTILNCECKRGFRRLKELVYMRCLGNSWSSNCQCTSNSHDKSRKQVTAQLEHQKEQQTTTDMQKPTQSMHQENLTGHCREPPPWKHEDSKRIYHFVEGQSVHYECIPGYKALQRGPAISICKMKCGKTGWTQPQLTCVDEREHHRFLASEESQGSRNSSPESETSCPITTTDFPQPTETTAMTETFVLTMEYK
Chain of UniProt P01590 (P16297 27-240, chain 2 of 3, further chain): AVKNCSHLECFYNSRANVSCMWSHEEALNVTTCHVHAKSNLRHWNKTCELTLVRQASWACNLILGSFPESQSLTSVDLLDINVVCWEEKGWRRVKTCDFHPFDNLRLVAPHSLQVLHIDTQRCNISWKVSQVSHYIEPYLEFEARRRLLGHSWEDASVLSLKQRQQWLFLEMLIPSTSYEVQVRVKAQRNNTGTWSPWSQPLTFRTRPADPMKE
Chain of UniProt P01590 (P34902 23-263, chain 3 of 3, further chain): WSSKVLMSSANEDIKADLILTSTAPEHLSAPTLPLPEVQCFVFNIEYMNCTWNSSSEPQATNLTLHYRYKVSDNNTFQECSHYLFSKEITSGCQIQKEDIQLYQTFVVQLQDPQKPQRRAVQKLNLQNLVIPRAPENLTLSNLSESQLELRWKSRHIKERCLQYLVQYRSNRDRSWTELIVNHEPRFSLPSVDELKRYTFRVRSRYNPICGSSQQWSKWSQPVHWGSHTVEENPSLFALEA

TCGF (IL-2) (from UniProt P60568)
Kd: 0.02 nM
